According to IntAct's records for PubMed 14625560:

B1: Cell cycle serine/threonine-protein kinase hsk1 (Schizosaccharomyces pombe (strain ATCC 38366 / 972)), P50582 (parent)
chain: MAEAHITLSPKVTHEQQTDIDSECEITEVDDENVNENKSQEMIQDIPARDREEIENITRTFVELQENYRLIEKIGEGTFSSVYKAEDLHYGRYINDWDIQSEVLKESSFGKEKIPVNEDSRKPKYVAIKKIYATSSPARIYNELEILYLLRGSSVIAPLITALRNEDQVLVVLPYYEHTDFRQYYSTFSYRDMSIYFRCLFQAMQQTQTLGIIHRDIKPSNFLFDVRTKHGVLVDFGLAERYDGRQQSHSCRCTNSNAAELAHDFSIAQETSLGYIKNDTRPSKRANRAGTRGFRAPEVLFKCSSQSPKVDIWSAGVILLSFLTKRFPMFNSKDDVDALMEIACIFGKSEMRQCAALHGCTFETNVSTLTEKRVNFRKLILWASCGSASIYKEKLRHKPSQEERLCLDFLEKCLELDCNKRISAEEALDHDFLYLDNLAYEKKDDDTAFDNSFGETSFEKDEDLTAKHLSHILDFKEQEETDEPTSLSKRKRSIDEILPNDALQDGA
partner: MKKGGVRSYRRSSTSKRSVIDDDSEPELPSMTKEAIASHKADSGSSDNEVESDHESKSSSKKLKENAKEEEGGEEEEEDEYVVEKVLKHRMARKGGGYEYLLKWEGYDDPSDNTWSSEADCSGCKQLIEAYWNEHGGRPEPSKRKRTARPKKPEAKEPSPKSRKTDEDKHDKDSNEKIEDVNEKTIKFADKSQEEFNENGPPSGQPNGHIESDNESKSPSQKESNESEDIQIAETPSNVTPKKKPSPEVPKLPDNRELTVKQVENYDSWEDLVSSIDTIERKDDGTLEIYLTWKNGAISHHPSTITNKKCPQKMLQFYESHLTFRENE

Variants of: B1
Details: with swi6_schpo swi6, P40381

Variant	effect of a mutation on the interaction
MAEAHITLSPKVTHEQQTDIDSECEITEVDDENVNENKSQEMIQDIPARDREEIENITRTFVELQENYRLIEKIGEGTFSSVYKAEDLHYGRYINDWDIQSEVLKESSFGKEKIPVNEDSRKPKYVAIKKIYATSSPARIYNELEILYLLRGSSVIAPLITALRNEDQVLVVLPYYEHTDFRQYYSTFSYRDMSIYFRCLFQAMQQTQTLGIIHRDIKPSNFLFDVRTKHGVLVDFGLAERYDGRQQSHSCRCTNSNAAELAHDFSIAQETSLGYIKNDTRPSKRANRAGTRGFRAPEVLFKCSSQSPKVDIWIAGVILLSFLTKRFPMFNSKDDVDALMEIACIFGKSEMRQCAALHGCTFETNVSTLTEKRVNFRKLILWASCGSASIYKEKLRHKPSQEERLCLDFLEKCLELDCNKRISAEEALDHDFLYLDNLAYEKKDDDTAFDNSFGETSFEKDEDLTAKHLSHILDFKEQEETDEPTSLSKRKRSIDEILPNDALQDGA [S314I]	decreasing interaction
